# According to patent US9862971B2 (BUNDESREPUBLIK DEUTSCHLAND, LETZTVERTRETEN DURCH DEN …, dated 2018):
# T1: Human SLAM (signaling lymphocyte-activation molecule) (human, UniProt Q13291)
# T1 sequence: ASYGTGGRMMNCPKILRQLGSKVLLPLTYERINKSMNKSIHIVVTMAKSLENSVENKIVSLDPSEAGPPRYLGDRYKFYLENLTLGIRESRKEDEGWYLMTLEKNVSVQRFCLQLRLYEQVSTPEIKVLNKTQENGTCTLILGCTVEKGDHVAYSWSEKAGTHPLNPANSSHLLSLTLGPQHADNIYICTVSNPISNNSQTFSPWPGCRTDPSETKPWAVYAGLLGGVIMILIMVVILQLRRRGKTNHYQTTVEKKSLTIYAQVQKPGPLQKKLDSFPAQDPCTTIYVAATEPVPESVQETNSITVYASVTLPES
# B1: HmutscFvCD20Δ24+4A (other)
# chain: MAAAANREHLMIDRPYVLLAVLFVMFLSLIGLLAIAGIRLHRAAIYTAEIHKSLSTNLDVTNSIEHQVKDVLTPLFKIIGDEVGLRTPQRFTDLVKFISDKIKFLNPDREYDFRDLTWCINPPERIKLDYDQYCADVAAEELMNALVNSTLLETRTTNQFLAVSKGNCSGPTTIRGQFSNMSLSLLDLYLGRGYNVSSIVTMTSQGMYGGTYLVEKPNLSSKRSELSQLSMYRVFEVGVIRNPGLGAPVFHMTNYLEQPVSNDLSNCMVALGELKLAALCHGEDSITIPYQGSGKGVSFQLVKLGVWKSPTDMQSWVPLSTDDPVIDRLYLSSHRGVIADNQAKWAVPTTRTDDKLRMETCFQQACKGKIQALCENPEWAPLKDNRIPSYGVLSVDLSLTVELKIKIASGFGPLITHGSGMDLYKSNHNNVYWLTIPPMKNLALGVINTLEWIPRFKVSPALFTVPIKEAGGDCHAPTYLPAEVDGDVKLSSNLVILPGQDLQYVLATYDTSAVEHAVVYYVYSPSRLSSYFYPFRLPIKGVPIELQVECFTWDQKLWCRHFCVLADSESGGHITHSGMVGMGVSCTVTREDGTNAAQPAIEGRMAQVQLVQSGAELVKPGASVKMSCKASGYTFTSYNMHWVKQTPGQGLEWIGAIYPGNGDTSYNQKFKGKATLTADKSSSTAYMQLSSLTSEDSAVYYCARAQLRPNYWYFDVWGAGTTVTVSKISGGGGSGGGGSGGGGSGGSSDIVLSQSPAILSASPGEKVTMTCRASSSVSYMHWYQQKPGSSPKPWIYATSNLASGVPARFSGSGSGTSYSLTISRVEAEDAATYYCQQWISNPPTFGAGTKLELKAAARGSHHHHHH
# B2: HmutEGFΔ19 (other)
# chain: MSRIVINREHLMIDRPYVLLAVLFVMFLSLIGLLAIAGIRLHRAAIYTAEIHKSLSTNLDVTNSIEHQVKDVLTPLFKIIGDEVGLRTPQRFTDLVKFISDKIKFLNPDREYDFRDLTWCINPPERIKLDYDQYCADVAAEELMNALVNSTLLETRTTNQFLAVSKGNCSGPTTIRGQFSNMSLSLLDLYLGRGYNVSSIVTMTSQGMYGGTYLVEKPNLSSKRSELSQLSMYRVFEVGVIRNPGLGAPVFHMTNYLEQPVSNDLSNCMVALGELKLAALCHGEDSITIPYQGSGKGVSFQLVKLGVWKSPTDMQSWVPLSTDDPVIDRLYLSSHRGVIADNQAKWAVPTTRTDDKLRMETCFQQACKGKIQALCENPEWAPLKDNRIPSYGVLSVDLSLTVELKIKIASGFGPLITHGSGMDLYKSNHNNVYWLTIPPMKNLALGVINTLEWIPRFKVSPALFTVPIKEAGGDCHAPTYLPAEVDGDVKLSSNLVILPGQDLQYVLATYDTSAVEHAVVYYVYSPSRLSSYFYPFRLPIKGVPIELQVECFTWDQKLWCRHFCVLADSESGGHITHSGMVGMGVSCTVTREDGTNAAQPAMANSDSECPLSHDGYCLHDGVCMYIEALDKYACNCVVGYIGERCQYRDLKWWELRAAARGSHHHHHH
# B3: HmutscFvCD20Δ18 (other)
# chain: MGSRIVINREHLMIDRPYVLLAVLFVMFLSLIGLLAIAGIRLHRAAIYTAEIHKSLSTNLDVTNSIEHQVKDVLTPLFKIIGDEVGLRTPQRFTDLVKFISDKIKFLNPDREYDFRDLTWCINPPERIKLDYDQYCADVAAEELMNALVNSTLLETRTTNQFLAVSKGNCSGPTTIRGQFSNMSLSLLDLYLGRGYNVSSIVTMTSQGMYGGTYLVEKPNLSSKRSELSQLSMYRVFEVGVIRNPGLGAPVFHMTNYLEQPVSNDLSNCMVALGELKLAALCHGEDSITIPYQGSGKGVSFQLVKLGVWKSPTDMQSWVPLSTDDPVIDRLYLSSHRGVIADNQAKWAVPTTRTDDKLRMETCFQQACKGKIQALCENPEWAPLKDNRIPSYGVLSVDLSLTVELKIKIASGFGPLITHGSGMDLYKSNHNNVYWLTIPPMKNLALGVINTLEWIPRFKVSPALFTVPIKEAGGDCHAPTYLPAEVDGDVKLSSNLVILPGQDLQYVLATYDTSAVEHAVVYYVYSPSRLSSYFYPFRLPIKGVPIELQVECFTWDQKLWCRHFCVLADSESGGHITHSGMVGMGVSCTVTREDGTNAAQPAIEGRMAQVQLVQSGAELVKPGASVKMSCKASGYTFTSYNMHWVKQTPGQGLEWIGAIYPGNGDTSYNQKFKGKATLTADKSSSTAYMQLSSLTSEDSAVYYCARAQLRPNYWYFDVWGAGTTVTVSKISGGGGSGGGGSGGGGSGGSSDIVLSQSPAILSASPGEKVTMTCRASSSVSYMHWYQQKPGSSPKPWIYATSNLASGVPARFSGSGSGTSYSLTISRVEAEDAATYYCQQWISNPPTFGAGTKLELKAAARGSHHHHHH
# B4: HmutEGFΔ18 (other)
# chain: MGSRIVINREHLMIDRPYVLLAVLFVMFLSLIGLLAIAGIRLHRAAIYTAEIHKSLSTNLDVTNSIEHQVKDVLTPLFKIIGDEVGLRTPQRFTDLVKFISDKIKFLNPDREYDFRDLTWCINPPERIKLDYDQYCADVAAEELMNALVNSTLLETRTTNQFLAVSKGNCSGPTTIRGQFSNMSLSLLDLYLGRGYNVSSIVTMTSQGMYGGTYLVEKPNLSSKRSELSQLSMYRVFEVGVIRNPGLGAPVFHMTNYLEQPVSNDLSNCMVALGELKLAALCHGEDSITIPYQGSGKGVSFQLVKLGVWKSPTDMQSWVPLSTDDPVIDRLYLSSHRGVIADNQAKWAVPTTRTDDKLRMETCFQQACKGKIQALCENPEWAPLKDNRIPSYGVLSVDLSLTVELKIKIASGFGPLITHGSGMDLYKSNHNNVYWLTIPPMKNLALGVINTLEWIPRFKVSPALFTVPIKEAGGDCHAPTYLPAEVDGDVKLSSNLVILPGQDLQYVLATYDTSAVEHAVVYYVYSPSRLSSYFYPFRLPIKGVPIELQVECFTWDQKLWCRHFCVLADSESGGHITHSGMVGMGVSCTVTREDGTNAAQPAMANSDSECPLSHDGYCLHDGVCMYIEALDKYACNCVVGYIGERCQYRDLKWWELRAAARGSHHHHHH
# B5: HmutEGFΔ24+4A (other)
# chain: MAAAANREHLMIDRPYVLLAVLFVMFLSLIGLLAIAGIRLHRAAIYTAEIHKSLSTNLDVTNSIEHQVKDVLTPLFKIIGDEVGLRTPQRFTDLVKFISDKIKFLNPDREYDFRDLTWCINPPERIKLDYDQYCADVAAEELMNALVNSTLLETRTTNQFLAVSKGNCSGPTTIRGQFSNMSLSLLDLYLGRGYNVSSIVTMTSQGMYGGTYLVEKPNLSSKRSELSQLSMYRVFEVGVIRNPGLGAPVFHMTNYLEQPVSNDLSNCMVALGELKLAALCHGEDSITIPYQGSGKGVSFQLVKLGVWKSPTDMQSWVPLSTDDPVIDRLYLSSHRGVIADNQAKWAVPTTRTDDKLRMETCFQQACKGKIQALCENPEWAPLKDNRIPSYGVLSVDLSLTVELKIKIASGFGPLITHGSGMDLYKSNHNNVYWLTIPPMKNLALGVINTLEWIPRFKVSPALFTVPIKEAGGDCHAPTYLPAEVDGDVKLSSNLVILPGQDLQYVLATYDTSAVEHAVVYYVYSPSRLSSYFYPFRLPIKGVPIELQVECFTWDQKLWCRHFCVLADSESGGHITHSGMVGMGVSCTVTREDGTNAAQPAMANSDSECPLSHDGYCLHDGVCMYIEALDKYACNCVVGYIGERCQYRDLKWWELRAAARGSHHHHHH
# Key:
# Assay in all cases: cell-based or functional assay
# CD46 [1] = target: T2, CD46 (human, UniProt P15529)
# human CD20 = human CD20 (human, UniProt P11836)
# CD46 [2] = target: T2, CD46; remark: listed apart in the source
# Human SLAM (signaling …) = target: T1, Human SLAM (signaling …)
# EGF-receptor = EGF-receptor (Homo sapiens (Human), UniProt P00533)
Binder,"titer [t.u./ml] of HIV-1 vector particles on HT1080 cells, concentrated supernatant (CD46 [1])","titer [t.u./ml] of HIV-1 vector particles on HT1080-CD20 cells, concentrated supernatant (human CD20)","titer [t.u./ml] of HIV-1 vector particles on CHO-BC1 cells, concentrated supernatant (CD46 [2])","titer [t.u./ml] of HIV-1 vector particles on CHO-hSLAM cells, concentrated supernatant (Human SLAM (signaling …))","titer [t.u./ml] of HIV-1 vector particles on A-431 cells, concentrated supernatant (EGF-receptor)"
B1,200 t.u./ml,8600 t.u./ml,–,–,–
B2,–,–,0 t.u./ml,160 t.u./ml,22000 t.u./ml
B3,980 t.u./ml,200000 t.u./ml,–,–,–
B4,–,–,0 t.u./ml,280 t.u./ml,270000 t.u./ml
B5,–,–,800 t.u./ml,960 t.u./ml,58000 t.u./ml
